Measurements from patent US20230416330A1, “Optimized GIP Peptide Analogues” (Antag Therapeutics ApS, priority 2019, published 2023).
Starred links: 1 amine or outer side, 2 acyl side, 3 side chain; linkers in the order of their positions; H or OH if unused. Non-standard residues stand in square brackets, D forms with d. Groups on a side chain read outwards from the residue. No end group written: not given here. *: point of attachment. C18 diacid = O=C(O)CCCCCCCCCCCCCCCCC(=O)*; C16 diacid = O=C(O)CCCCCCCCCCCCCCC(=O)*; γGlu = O=C(O)[C@H](CCC(=O)[*:2])N[*:1]; Glutaryl = O=C(CCCC(=O)[*:2])[*:1]; AEEA = NCCOCCOCC(=O)O; Aib = CC(C)(N)C(=O)O

T1: human GIP receptor (human, UniProt P48546 22-466)
T1 sequence (looked up): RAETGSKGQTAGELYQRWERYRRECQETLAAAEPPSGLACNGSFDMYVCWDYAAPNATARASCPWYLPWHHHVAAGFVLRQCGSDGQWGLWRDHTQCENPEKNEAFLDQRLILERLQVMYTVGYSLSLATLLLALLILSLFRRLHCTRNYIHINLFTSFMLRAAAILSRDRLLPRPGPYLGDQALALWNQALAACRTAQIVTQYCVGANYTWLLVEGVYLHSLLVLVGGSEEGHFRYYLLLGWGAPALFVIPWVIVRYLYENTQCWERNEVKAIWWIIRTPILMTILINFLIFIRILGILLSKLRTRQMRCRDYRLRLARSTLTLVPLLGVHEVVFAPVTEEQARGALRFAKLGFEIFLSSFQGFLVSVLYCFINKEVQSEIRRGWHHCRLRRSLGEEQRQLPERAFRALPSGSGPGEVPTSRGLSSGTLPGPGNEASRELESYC

B1: AT715 (peptide)
peptide: Glutaryl-GTFISDYSI[Aib]MDKIK(C16 diacid)QQDFVEWLLAQKPSSGAPPPS-OH
B2: AT716 (peptide)
peptide: EGTFISEYSI[Aib]MEKIK(C16 diacid)QQDFVEWLLAQKPSSGAPPPS-OH
modifications: N-terminus assumed
SMILES: CC[C@H](C)[C@H](NC(=O)[C@H](CCCCN)NC(=O)[C@H](CCC(=O)O)NC(=O)[C@H](CCSC)NC(=O)C(C)(C)NC(=O)[C@@H](NC(=O)[C@H](CO)NC(=O)[C@H](Cc1ccc(O)cc1)NC(=O)[C@H](CCC(=O)O)NC(=O)[C@H](CO)NC(=O)[C@@H](NC(=O)[C@H](Cc1ccccc1)NC(=O)[C@@H](NC(=O)CNC(=O)[C@@H](N)CCC(=O)O)[C@@H](C)O)[C@@H](C)CC)[C@@H](C)CC)C(=O)N[C@@H](CCCCNC(=O)CCCCCCCCCCCCCCC(=O)O)C(=O)N[C@@H](CCC(N)=O)C(=O)N[C@@H](CCC(N)=O)C(=O)N[C@@H](CC(=O)O)C(=O)N[C@@H](Cc1ccccc1)C(=O)N[C@H](C(=O)N[C@@H](CCC(=O)O)C(=O)N[C@@H](Cc1c[nH]c2ccccc12)C(=O)N[C@@H](CC(C)C)C(=O)N[C@@H](CC(C)C)C(=O)N[C@@H](C)C(=O)N[C@@H](CCC(N)=O)C(=O)N[C@@H](CCCCN)C(=O)N1CCC[C@H]1C(=O)N[C@@H](CO)C(=O)N[C@@H](CO)C(=O)NCC(=O)N[C@@H](C)C(=O)N1CCC[C@H]1C(=O)N1CCC[C@H]1C(=O)N1CCC[C@H]1C(=O)N[C@@H](CO)C(=O)O)C(C)C
B3: AT712 (peptide)
peptide: EGTFISEYSI[Aib]LDKIK([AEEA-AEEA-γGlu-C18 diacid])QQDFVEWLLAQKPSSGAPPPS-OH
modifications: N-terminus assumed
SMILES: CC[C@H](C)[C@H](NC(=O)[C@H](CCCCN)NC(=O)[C@H](CC(=O)O)NC(=O)[C@H](CC(C)C)NC(=O)C(C)(C)NC(=O)[C@@H](NC(=O)[C@H](CO)NC(=O)[C@H](Cc1ccc(O)cc1)NC(=O)[C@H](CCC(=O)O)NC(=O)[C@H](CO)NC(=O)[C@@H](NC(=O)[C@H](Cc1ccccc1)NC(=O)[C@@H](NC(=O)CNC(=O)[C@@H](N)CCC(=O)O)[C@@H](C)O)[C@@H](C)CC)[C@@H](C)CC)C(=O)N[C@@H](CCCCNC(=O)COCCOCCNC(=O)COCCOCCNC(=O)CC[C@H](NC(=O)CCCCCCCCCCCCCCCCC(=O)O)C(=O)O)C(=O)N[C@@H](CCC(N)=O)C(=O)N[C@@H](CCC(N)=O)C(=O)N[C@@H](CC(=O)O)C(=O)N[C@@H](Cc1ccccc1)C(=O)N[C@H](C(=O)N[C@@H](CCC(=O)O)C(=O)N[C@@H](Cc1c[nH]c2ccccc12)C(=O)N[C@@H](CC(C)C)C(=O)N[C@@H](CC(C)C)C(=O)N[C@@H](C)C(=O)N[C@@H](CCC(N)=O)C(=O)N[C@@H](CCCCN)C(=O)N1CCC[C@H]1C(=O)N[C@@H](CO)C(=O)N[C@@H](CO)C(=O)NCC(=O)N[C@@H](C)C(=O)N1CCC[C@H]1C(=O)N1CCC[C@H]1C(=O)N1CCC[C@H]1C(=O)N[C@@H](CO)C(=O)O)C(C)C
B4: AT708 (peptide)
peptide: Glutaryl-GTFISEYSI[Aib]MEKIK([AEEA-AEEA-γGlu-C18 diacid])QQEFVEWLLAQKPSSGAPPPS-OH
SMILES: CC[C@H](C)[C@H](NC(=O)[C@H](CCCCN)NC(=O)[C@H](CCC(=O)O)NC(=O)[C@H](CCSC)NC(=O)C(C)(C)NC(=O)[C@@H](NC(=O)[C@H](CO)NC(=O)[C@H](Cc1ccc(O)cc1)NC(=O)[C@H](CCC(=O)O)NC(=O)[C@H](CO)NC(=O)[C@@H](NC(=O)[C@H](Cc1ccccc1)NC(=O)[C@@H](NC(=O)CNC(=O)CCCC(=O)O)[C@@H](C)O)[C@@H](C)CC)[C@@H](C)CC)C(=O)N[C@@H](CCCCNC(=O)COCCOCCNC(=O)COCCOCCNC(=O)CC[C@H](NC(=O)CCCCCCCCCCCCCCCCC(=O)O)C(=O)O)C(=O)N[C@@H](CCC(N)=O)C(=O)N[C@@H](CCC(N)=O)C(=O)N[C@@H](CCC(=O)O)C(=O)N[C@@H](Cc1ccccc1)C(=O)N[C@H](C(=O)N[C@@H](CCC(=O)O)C(=O)N[C@@H](Cc1c[nH]c2ccccc12)C(=O)N[C@@H](CC(C)C)C(=O)N[C@@H](CC(C)C)C(=O)N[C@@H](C)C(=O)N[C@@H](CCC(N)=O)C(=O)N[C@@H](CCCCN)C(=O)N1CCC[C@H]1C(=O)N[C@@H](CO)C(=O)N[C@@H](CO)C(=O)NCC(=O)N[C@@H](C)C(=O)N1CCC[C@H]1C(=O)N1CCC[C@H]1C(=O)N1CCC[C@H]1C(=O)N[C@@H](CO)C(=O)O)C(C)C
B5: AT710 (peptide)
peptide: EGTFISEYSIAMEKIK([AEEA-AEEA-γGlu-C18 diacid])QQEFVEWLLAQKPSSGAPPPS-OH
B6: AT709 (peptide)
peptide: EGTFISEYSI[Aib]MEKIK([AEEA-AEEA-γGlu-C18 diacid])QQEFVEWLLAQKPSSGAPPPS-OH
B7: AT714 (peptide)
peptide: EGTFISEYSI[Aib]LEKIK([AEEA-AEEA-γGlu-C18 diacid])QQEFVEWLLAQKPSSGAPPPS-NH2
modifications: N-terminus assumed
SMILES: CC[C@H](C)[C@H](NC(=O)[C@H](CCCCN)NC(=O)[C@H](CCC(=O)O)NC(=O)[C@H](CC(C)C)NC(=O)C(C)(C)NC(=O)[C@@H](NC(=O)[C@H](CO)NC(=O)[C@H](Cc1ccc(O)cc1)NC(=O)[C@H](CCC(=O)O)NC(=O)[C@H](CO)NC(=O)[C@@H](NC(=O)[C@H](Cc1ccccc1)NC(=O)[C@@H](NC(=O)CNC(=O)[C@@H](N)CCC(=O)O)[C@@H](C)O)[C@@H](C)CC)[C@@H](C)CC)C(=O)N[C@@H](CCCCNC(=O)COCCOCCNC(=O)COCCOCCNC(=O)CC[C@H](NC(=O)CCCCCCCCCCCCCCCCC(=O)O)C(=O)O)C(=O)N[C@@H](CCC(N)=O)C(=O)N[C@@H](CCC(N)=O)C(=O)N[C@@H](CCC(=O)O)C(=O)N[C@@H](Cc1ccccc1)C(=O)N[C@H](C(=O)N[C@@H](CCC(=O)O)C(=O)N[C@@H](Cc1c[nH]c2ccccc12)C(=O)N[C@@H](CC(C)C)C(=O)N[C@@H](CC(C)C)C(=O)N[C@@H](C)C(=O)N[C@@H](CCC(N)=O)C(=O)N[C@@H](CCCCN)C(=O)N1CCC[C@H]1C(=O)N[C@@H](CO)C(=O)N[C@@H](CO)C(=O)NCC(=O)N[C@@H](C)C(=O)N1CCC[C@H]1C(=O)N1CCC[C@H]1C(=O)N1CCC[C@H]1C(=O)N[C@@H](CO)C(N)=O)C(C)C
B8: AT713 (peptide)
peptide: Glutaryl-GTFISEYSI[Aib]LEKIK([AEEA-AEEA-γGlu-C18 diacid])QQEFVEWLLAQKPSSGAPPPS-NH2
SMILES: CC[C@H](C)[C@H](NC(=O)[C@H](CCCCN)NC(=O)[C@H](CCC(=O)O)NC(=O)[C@H](CC(C)C)NC(=O)C(C)(C)NC(=O)[C@@H](NC(=O)[C@H](CO)NC(=O)[C@H](Cc1ccc(O)cc1)NC(=O)[C@H](CCC(=O)O)NC(=O)[C@H](CO)NC(=O)[C@@H](NC(=O)[C@H](Cc1ccccc1)NC(=O)[C@@H](NC(=O)CNC(=O)CCCC(=O)O)[C@@H](C)O)[C@@H](C)CC)[C@@H](C)CC)C(=O)N[C@@H](CCCCNC(=O)COCCOCCNC(=O)COCCOCCNC(=O)CC[C@H](NC(=O)CCCCCCCCCCCCCCCCC(=O)O)C(=O)O)C(=O)N[C@@H](CCC(N)=O)C(=O)N[C@@H](CCC(N)=O)C(=O)N[C@@H](CCC(=O)O)C(=O)N[C@@H](Cc1ccccc1)C(=O)N[C@H](C(=O)N[C@@H](CCC(=O)O)C(=O)N[C@@H](Cc1c[nH]c2ccccc12)C(=O)N[C@@H](CC(C)C)C(=O)N[C@@H](CC(C)C)C(=O)N[C@@H](C)C(=O)N[C@@H](CCC(N)=O)C(=O)N[C@@H](CCCCN)C(=O)N1CCC[C@H]1C(=O)N[C@@H](CO)C(=O)N[C@@H](CO)C(=O)NCC(=O)N[C@@H](C)C(=O)N1CCC[C@H]1C(=O)N1CCC[C@H]1C(=O)N1CCC[C@H]1C(=O)N[C@@H](CO)C(N)=O)C(C)C
B9: AT707 (peptide)
peptide: Glutaryl-GTFISEYSIALEKIK([AEEA-AEEA-γGlu-C18 diacid])QQEFVEWLLAQKPSSGAPPPS-OH
SMILES: CC[C@H](C)[C@H](NC(=O)[C@H](CO)NC(=O)[C@H](Cc1ccc(O)cc1)NC(=O)[C@H](CCC(=O)O)NC(=O)[C@H](CO)NC(=O)[C@@H](NC(=O)[C@H](Cc1ccccc1)NC(=O)[C@@H](NC(=O)CNC(=O)CCCC(=O)O)[C@@H](C)O)[C@@H](C)CC)C(=O)N[C@@H](C)C(=O)N[C@@H](CC(C)C)C(=O)N[C@@H](CCC(=O)O)C(=O)N[C@@H](CCCCN)C(=O)N[C@H](C(=O)N[C@@H](CCCCNC(=O)COCCOCCNC(=O)COCCOCCNC(=O)CC[C@H](NC(=O)CCCCCCCCCCCCCCCCC(=O)O)C(=O)O)C(=O)N[C@@H](CCC(N)=O)C(=O)N[C@@H](CCC(N)=O)C(=O)N[C@@H](CCC(=O)O)C(=O)N[C@@H](Cc1ccccc1)C(=O)N[C@H](C(=O)N[C@@H](CCC(=O)O)C(=O)N[C@@H](Cc1c[nH]c2ccccc12)C(=O)N[C@@H](CC(C)C)C(=O)N[C@@H](CC(C)C)C(=O)N[C@@H](C)C(=O)N[C@@H](CCC(N)=O)C(=O)N[C@@H](CCCCN)C(=O)N1CCC[C@H]1C(=O)N[C@@H](CO)C(=O)N[C@@H](CO)C(=O)NCC(=O)N[C@@H](C)C(=O)N1CCC[C@H]1C(=O)N1CCC[C@H]1C(=O)N1CCC[C@H]1C(=O)N[C@@H](CO)C(=O)O)C(C)C)[C@@H](C)CC

Target: T1, human GIP receptor
Assay: cell-based or functional assay

First: B1
Second: B2
The “nM (Kb, Gaddum assay, cAMP)” value of the first is 1.5-fold lower: 0.19 nM for the first, 0.29 nM for the second.

Compared with B3, B4 is 1.9-fold lower in “nM (Kb, Gaddum assay, cAMP)” value: 0.39 nM for the first, 0.2 nM for the second.

First: B5
Second: B6
The “nM (Kb, Gaddum assay, cAMP)” value of the first is 3-fold higher: 0.73 nM for the first, 0.24 nM for the second.

B7 and B8 are within 1.5-fold of each other in “nM (Kb, Gaddum assay, cAMP)” value: 0.43 nM for the first, 0.31 nM for the second.

B9 was tested, and the “nM (Kb, Gaddum assay, cAMP)” value was 0.28 nM.

Going from B1 to B2, the “pKb (Gaddum assay, cAMP)” value falls from 9.7 to 9.5.

First: B3
Second: B4
The “pKb (Gaddum assay, cAMP)” value of the first is lower: 9.4 for the first, 9.7 for the second.

First: B5
Second: B6
The “pKb (Gaddum assay, cAMP)” value of the first is lower: 9.1 for the first, 9.6 for the second.

B7 and B8 are within 0.2 log units of each other in “pKb (Gaddum assay, cAMP)” value: 9.4 for the first, 9.5 for the second.

With B9 the “pKb (Gaddum assay, cAMP)” value was 9.6.
